Columns and labels:
[1] = tested on: endogenous MMP-1 in human serum; assay: Time-dependent aggregation (OD350) of ELP-substrate fusion in diluted human serum (40%); assay type: biochemical; details: diluted serum, without any added MMP-1, after 400 minutes, 37° C.
Protocol: We performed the proteolysis reactions either in 100% protease buffer or in a mixture of human serum and buffer (40% (v/v) serum, 50% (v/v) buffer, 10% (v/v) ELP-substrate solution in water). The proteolysis buffer (100 mM HEPES, CaCl2 20 mM, MgCl2 1.0 mM, ZnCl2 100 μM, NaCl 0.5 M for diluted serum and 0.1 M for buffer solutions) was made experimentally in our lab based on previously published assays (Patterson, J. & Hubbell, J. A. Biomaterials 2010, 31, 7836-7845; Turk, B. E. et al., Nature Biotechnology 2001, 19, 661-667; Lowe, S. B. et al., Acs Nano 2012, 6, 851-857). We investigated proteolysis in two ways. In the first approach, we incubated solutions of the ELP-substrate fusion with MMP-1 (100 ng/mL) for 12 h at 40° C. temperature and measured the optical density at 350 nm (OD350) before and after the incubation. In the second approach, we incubated the ELP-substrate fusion with varying concentrations of MMP-1 (0.02 ng/mL to 200 ng/mL) in buffer or in diluted human serum, at 40° C. or 37° C. respectively, a temperature that is above the CMT of the ELP, and monitored the changes OD350 as a function of time (kinetic study). For the kinetic studies, we added the enzyme to the solution after the optical density of the solution reached a steady-state value and repeated the experiments at least three times. […]

[2] = target: T1, Human MMP-1 catalytic domain (Homo sapiens, UniProt P03956); assay: Time-dependent aggregation (OD350) of ELP-substrate fusion with MMP-1 in proteolysis buffer; assay type: biochemical; details: 50 nM MMP-1 inhibitor added prior to 50 ng/mL (2.5 nM) MMP-1; ELP-substrate fusion 100 μM, 40° C., protease buffer; even after 900 minutes
T1 construct: Human MMP-1 catalytic domain (recombinant, produced in E. coli, 19.9 kDa, >95% purity); purchased Enzo Life Sciences (Farmingdale, N.Y.); host or cells: E. coli
T1 sequence (P03956 100-269 limits assumed): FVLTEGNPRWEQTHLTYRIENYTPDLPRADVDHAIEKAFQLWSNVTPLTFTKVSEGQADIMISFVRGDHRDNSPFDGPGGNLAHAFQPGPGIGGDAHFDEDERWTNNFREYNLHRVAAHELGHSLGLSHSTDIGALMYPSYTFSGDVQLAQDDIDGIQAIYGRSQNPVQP

[3] = Thermal behavior by optical turbidimetry and dynamic light scattering; assay type: physicochemical; details: concentration of 100 μM
Protocol: We confirmed the purity and molecular weight of the purified peptides by electrophoresis (10-20% gradient […] SDS-PAGE, Thermo Scientific, CA) and by matrix-assisted laser desorption/ionization mass spectrometry. Mass spectrometry samples were prepared by mixing the enzymatic reaction product with sinapinic acid in 1:10 ratio. 1 μL of the sample/matrix mixture was then loaded on the grid and the measurements were performed on a Voyager-DE-Pro instrument (Applied Biosystems, Germany). To determine the concentration of the ELP-substrate fusion solutions we used a calculated extinction coefficient (Gill, S. C. & Vonhippel, P. H. Analytical Biochemistry 1989, 182, 319-326) or lyophilized the polypeptide solution. We studied the thermal behavior of the ELP-substrate fusion constructs in both proteolysis buffer (see below) and diluted human serum in the presence and absence of MMP-1 using optical turbidimetry on a temperature-programmed UV-vis spectrometer (Cary 300, Agilent Technologies). To characterize the size of the micelles and aggregates, we used single angle dynamic light scattering (DLS; DynaPro, Protein Solution).
FIG. 2 presents optical densities at 350 nm (OD350) and hydrodynamic diameters of ELP-substrate fusion as a function of temperature prior to, and after, enzymatic reaction. […] These changes are consistent with the self-assembly of ELP-substrate fusions (unimers) into micelles as the temperature is raised above the CMT (Ghoorchian, A. et al., The Journal of Physical Chemistry. B 2013, 117, 8865-8874). We note that there is a slight local maximum in both the optical density and hydrodynamic diameter at temperatures slightly above the CMT, which has been observed previously (Hassouneh, W., Duke University, PhD thesis, 2013); the origin of this small peak is, as yet, unclear.

active PSA = active PSA (Homo sapiens, UniProt P07288); assay: Optical density of PSA peptide before and after incubation with active PSA; assay type: biochemical; details: 100 μM, 20 ng/mL active PSA, protease buffer, 37° C., 2 hours
Protocol: We designed a number of genes and replaced the MMP-1 sensitive peptide described above with a PSA-sensitive peptide sequence. One such example is: M(GVGVP)60[…] (SEQ ID NO:6; referred to herein as PSA peptide). Optical density measurements of 100 μM solution of PSA peptide were obtained prior to and after incubation with 20 ng/mL active PSA in protease buffer at 37° C. for 2 hours.

MMP-1 = target: T2, MMP-1 (Homo sapiens, UniProt P03956); assay: Transition temperature of UCST biopolymer before and after incubation with MMP-1; assay type: biochemical; details: 25 μM, 25 ng/mL MMP-1, 37° C.
T2 sequence (P03956 100-469): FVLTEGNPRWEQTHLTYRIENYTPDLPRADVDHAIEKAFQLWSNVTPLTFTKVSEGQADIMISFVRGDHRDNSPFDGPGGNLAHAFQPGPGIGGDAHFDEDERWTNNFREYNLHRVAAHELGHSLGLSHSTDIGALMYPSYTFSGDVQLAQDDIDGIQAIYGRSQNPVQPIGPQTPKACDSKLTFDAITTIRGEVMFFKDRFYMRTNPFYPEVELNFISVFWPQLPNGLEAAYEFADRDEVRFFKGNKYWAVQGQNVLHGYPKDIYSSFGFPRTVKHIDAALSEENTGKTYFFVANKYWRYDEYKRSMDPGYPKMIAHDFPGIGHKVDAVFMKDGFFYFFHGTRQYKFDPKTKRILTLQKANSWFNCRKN
Text: To exemplify the use of UCST peptides, we changed our system by incorporating a number of UCST biopolymers with the MMP-1 substrate, for example: M(YPSDGRGQ)40YGDGQ VPMSMRGGDEGQQDDEEGY (SEQ ID NO:7; referred to herein as the A4 construct). Cleavage of the protease-sensitive peptide between S and M in this sequence at a constant temperature would increase the transition temperature, which can cause the solution to transition from clear to cloudy. The time that takes for the transition to happen depends on the enzyme concentration similar to in the manner in which the LCST, micellar-based assays described above function.
Accordingly, aggregation time can be used to estimate the enzyme concentration in an unknown solution.

Chain of active PSA (P07288 25-261): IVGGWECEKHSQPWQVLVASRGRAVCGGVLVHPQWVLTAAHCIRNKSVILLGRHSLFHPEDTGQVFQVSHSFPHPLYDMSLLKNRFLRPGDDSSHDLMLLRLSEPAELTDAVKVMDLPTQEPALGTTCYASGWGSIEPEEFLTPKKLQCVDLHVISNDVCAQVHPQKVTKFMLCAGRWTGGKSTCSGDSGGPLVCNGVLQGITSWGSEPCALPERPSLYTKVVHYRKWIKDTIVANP

COc1ccc(S(=O)(=O)N(CC(=O)NO)CC(C)C)cc1 [NNGH, N-isobutyl-N-(4-methoxyphenylsulfonyl)glycyl hydroxamic acid, reference compound]
aggregation in diluted serum with added MMP-1 inhibitor [1]: no aggregation
change in optical density upon addition of the inhibitor [2]: no significant change in optical density

(GVGVP)60 [reference compound]
soluble unimer-aggregate Tt [3]: ≈ 37 °C

M(GVGVP)60GDGQSSIYSQTEEQQDDEEG (MGVGVPGDGQSSIYSQTEEQQDDEEG) [PSA peptide]
optical density after incubation with active PSA (active PSA): increase in optical density of the solution above the transition temperature

M(YPSDGRGQ)40YGDGQ VPMSMRGGDEGQQDDEEGY (MYPSDGRGQYGDGQVPMSMRGGDEGQQDDEEGY) [A4 construct, MMP-sensitive-UCST biopolymer]
transition temperature prior to and after incubation with MMP-1 (MMP-1): change in transition temperature

— patent publication US20160348147A1, “SYSTEMS AND DEVICES FOR PROTEASE DETECTION BASED ON ENGINEERED POLYMERS AND BIOPOLYMERS AND METHODS OF USE” (DUKE UNIVERSITY, priority 2014, published 2016)
